Assay results: patent US12674174B2, “Protoporphyrinogen oxidase (PPO) resistance plant” (PLANTARC BIO LTD., priority 2022, dated 2026)

Assays:
Arabidopsis plants = conditions: yes/no; for High concentration herbicide tolerance: Table 1; for Herbicide tolerance: Table 2, FIG. 6C legend: Star 1.25 kg/hectare
[1] = test system: transgenic Arabidopsis plants; type: in vivo; conditions: for level of resistance against Aurora (in words): Aurora 0.01% to 0.5%, compared to control plants; for level of resistance against Strike (in words) / level of resistance to Strike, more tolerant to treatment as compared to control plants: Strike 0.01% to 1%; for level of resistance to Strike, more tolerant to treatment as compared to control plants: 5 orders of magnitude
Text: (SEQ ID NO: 8 was cloned from SEQ ID NO: 1, SEQ ID NO: 9 was cloned from SEQ ID NO: 2, SEQ ID NO: 10 was cloned from SEQ ID NO: 3, SEQ ID NO: 11 was cloned from SEQ ID NO: 4, SEQ ID NO: 12 was cloned from SEQ ID NO: 5, SEQ ID NO: 13 was cloned from SEQ ID NO: 6 SEQ ID NO: 14 was cloned from SEQ ID NO: 7). […] FIG. 1B summarizes the results of the three experiments described hereinabove.

B1: SEQ ID NO: 101: 4IVO_B. Structure of human protoporphyrinogen IX oxidase(R59Q) [Homo sapiens] (protein, listed as Homo sapiens)
chain: MGRTVVVLGGGISGLAASYHLSRAPCPPKVVLVESSERLGGWIRSVRGPNGAIFELGPQGIRPAGALGARTLLLVSELGLDSEVLPVRGDHPAAQNRFLYVGGALHALPTGLRGLLRPSPPFSKPLFWAGLRELTKPRGKEPDETVHSFAQRRLGPEVASLAMDSLCRGVFAGNSRELSIRSCFPSLFQAEQTHRSILLGLLLGAGRTPQPDSALIRQALAERWSQWSLRGGLEMLPQALETHLTSRGVSVLRGQPVCGLSLQAEGRWKVSLRDSSLEADHVISAIPASVLSELLPAEAAPLARALSAITAVSVAVVNLQYQGAHLPVQGFGHLVPSSEDPGVLGIVYDSVAFPEQDGSPPGLRVTVMLGGSWLQTLEASGCVLSQELFQQRAQEAAATQLGLKEMPSHCLVHLHKNCIPQYTLGHWQKLESARQFLTAHRLPLTLAGASYEGVAVNDCIESGRQAAVSVLGTEPNS
Question: For B1, which “High concentration herbicide tolerance” value (Arabidopsis plants) is on record?
Answer: no

Question: And the Herbicide tolerance (Arabidopsis plants)?
Answer: no

B2: SEQ ID NO: 10: PPO from Fusarium sp. fused to cTP. Chimeric Protein; cloned from SEQ ID NO: 3 (protein)
chain: MELSLLRPTTQSLLPSFSKPNLRLNVYKPLRLRCSVAGGMSRRRAESTAVALLSSPAKSHLQPPLRRLDGIRSLSTSSALARRRPIVACNYTQSFNNGRTFVSQAKDANIAVLGGGLTGLTAAYYLAKKLPSTAKITLYESSDRLGGWIKTDRVPVDIEGKSGTLSFERGARSLSSLVGNTFRFDDLVLYDLALDLGLAINSPSQQPRYIYYPDHLVPTPPNISIFDMLREPLYLEIIGASLGLGINSLRKRTLPSKDYSVSEWLYAVSNSRKGIGNLASAMMHGIYGGDIHKLSARCVLDRLYWGWYLPNPGLSVRPMPVAEQALLETLGQDKQIQKMALEPRSALVDFGDKGMESLPQALSAALREQPNITIKTGEAVQDVVYNKANQQVHITSSNAKDNSKHNSKVYDKVISTLSAQDIALLAGNKLPSLSTAHSVSVMTVNIWFPQENLKPPGFGYLIPNSVAPELNPEHALGVFFDSDVQTRSKDEPAGTKLFVLMGGHYYDRPDVTPPTEEEAIIQARNLLERHLGIPRDAPAYATANFARECIPQHYVGHQDRLKAAHTELTRNFGGRLAVAGGSFTRIGAVASLRAGYDAATAAKKGLEATGLEYLNDIQQFSVVATSHIPVRHFK
Question: Which “level of resistance against Aurora (in words)” value [1] does the source give for B2 here?
Answer: not against Aurora

Question: And the “level of resistance against Strike (in words)” value [1]?
Answer: high levels of resistance

Question: What about the “level of resistance to Strike, more tolerant to treatment as compared to control plants” value (from here on “level of resistance … compared to control plants”) [1] of the same molecule?
Answer: about 10^5

B3: SEQ ID NO: 12: PPO from Fusarium sp. fused to cTP. Chimeric Protein; cloned from SEQ ID NO: 5 (protein)
chain: MELSLLRPTTQSLLPSFSKPNLRLNVYKPLRLRCSVAGGMSRRRAESTAVALLSSPAKSHLQPPLRRLDGIRSLSTSSALARRRPIVACNYTQSFNNGRTFVSQAKDANIAVLGGGLTGLTAAYYLAKKLPSTAKITLYESSDRLGGWIKTDRVPVDIEGKSGTLSFERGARSLSSLVGNTFRFDDLVLYDLALDLGLAINSPSQQPRYIYYPDHLVPTPPNISIFDMLREPLYLEIIGASLGLGINSVRKRTLPSKDYSVSEWLYAVSNSRKGIGNLASAMMHGIYGGDIHKLSARCVLDRLYWGWYLPNPGLSVRPMPVAEQALLETLGQDKQIQKMALEPRSALVDFGDKGMESLPQALSAALREQPNITIKTGEAVQDVVYNKANQQVHITSSNAKDNSKHNSKVYDKVISTLSAQDIALLAGNKLPSLSTAHSVSVMTVNIWFPQENLKPPGFGYLIPNSVAPELNPEHALGVFFDSDVQTRSKDEPAGTKLFVLMGGHYYDRPDVTPPTEEEAIIQARNLLERHLGIPRDAPAYATANFARECIPQHYVGHQDRLKAAHTELTRNFGGRLAVAGGSFTRIGAVASLRAGYDAATAAKKGLEATGLEYLNDIQQFSVVATSQIPVRHFK
Question: With B3 as the molecule, how does the “level of resistance against Aurora (in words)” value [1] read?
Answer: not against Aurora

Question: And the “level of resistance against Strike (in words)” value [1]?
Answer: high levels of resistance

Question: And the “level of resistance … compared to control plants” value [1]?
Answer: about 10^5

B4: SEQ ID NO: 1: PPO from Aspergillus sp. Protein. (protein, listed as Aspergillus sp.)
chain: MRLPCASSRVFRQVRAPLALLSRGQRHAVHTKQFDAAVIGGGITGLTAAYQLSRDPSCSKVTLYEKSPHLGGWLSSEQIPVPGGHVVFEYGPRTLRTSSPSCLPMMDLIMNLDLLDDVLICDKKSPAAQNRYIYYPDHLVRLPFPPTEGLLKTAWTLLMEPLFETFLYSAIFEKPKRAENTHILSRDESVADFVSRRFSPKISENLASAVMAGIFAGDVNRLSAEMAIGYVRELEKRYGSIVDGMMTQRASEMRAMPMDELLALESVAVPSHSDDRYWKSLRAVVSDASVLTLKNGLGQLTDAMAAQLRSSRNVEVVTGTEVTSLSQNPKTQDLTIGFGKNESKTHNRVIATHAPSSLARQIQNTKVGVVPSDTIRDLGQNNYAVTVMVVNLYYEDPDLVPVEGFGYLLPSSVPFEQNPERALGVIFGSQSSEGQDTAPGTKLTVMMGGHLWDGWSESDYPDPDKAIEMAQALLHRHLGIKTAPSVARARLLRDAIPQYTVGHLSRMKELSHSVRSDFHKRLTLAGAWYGTVGIGVVDCIRQGYLASSYGVGSKKLGPGNSRRPWTKHDFHNWELEGGIATSPVRLDNVHVTERQHY
Question: Which “level of resistance against Aurora (in words)” value [1] does the source give for B4 here?
Answer: very high levels of resistance

Question: And the “level of resistance … compared to control plants” value [1]?
Answer: about 10^5

B5: SEQ ID NO: 8: PPO from Aspergillus sp. fused to cTP. Chimeric Protein; cloned from SEQ ID NO: 1 (protein)
chain: MELSLLRPTTQSLLPSFSKPNLRLNVYKPLRLRCSVAGGMRLPCASSRVFRQVRAPLALLSRGQRHAVHTKQFDAAVIGGGITGLTAAYQLSRDPSCSKVTLYEKSPHLGGWLSSEQIPVPGGHVVFEYGPRTLRTSSPSCLPMMDLIMNLDLLDDVLICDKKSPAAQNRYIYYPDHLVRLPFPPTEGLLKTAWTLLMEPLFETFLYSAIFEKPKRAENTHILSRDESVADFVSRRFSPKISENLASAVMAGIFAGDVNRLSAEMAIGYVRELEKRYGSIVDGMMTQRASEMRAMPMDELLALESVAVPSHSDDRYWKSLRAVVSDASVLTLKNGLGQLTDAMAAQLRSSRNVEVVTGTEVTSLSQNPKTQDLTIGFGKNESKTHNRVIATHAPSSLARQIQNTKVGVVPSDTIRDLGQNNYAVTVMVVNLYYEDPDLVPVEGFGYLLPSSVPFEQNPERALGVIFGSQSSEGQDTAPGTKLTVMMGGHLWDGWSESDYPDPDKAIEMAQALLHRHLGIKTAPSVARARLLRDAIPQYTVGHLSRMKELSHSVRSDFHKRLTLAGAWYGTVGIGVVDCIRQGYLASSYGVGSKKLGPGNSRRPWTKHDFHNWELEGGIATSPVRLDNVHVTERQHY
Question: For B5, which “level of resistance against Aurora (in words)” value [1] is on record?
Answer: very high levels of resistance

Question: And the “level of resistance … compared to control plants” value [1]?
Answer: about 10^5

B6: SEQ ID NO: 9: PPO from Aspergillus sp. fused to cTP. Chimeric Protein; cloned from SEQ ID NO: 2 (protein)
chain: MELSLLRPTTQSLLPSFSKPNLRLNVYKPLRLRCSVAGGMRLPCASSRAFRQVRAPLALLHRGQRHAVHTKQFDAAVIGGGITGLTAAYQLSRDPSCSKVTLYEKSSHLGGWLSSEQIPVPGGHVVFEYGPRTLRTSSPSCLPMMDLIMNLDLLDDVLICDKKSPAAQNRYIYYPDHLVRLPFPPTEGLLKTAWTLLMEPLFETFLYSAIFEKPKRAENTHILSRDESVADFVSRRFSPKISENLASAVMAGIFAGDVNRLSAEMAIGYVRELEKRYGSIVDGMMTQRASEMRAMPMDELLALESVAVPSHSDDRYWKSLRAVVTDASVLTLKNGLGQLTDAMAAQLRSSRNVEVVTGTEVTSLSQNPKTQDLTIGFGKNESRTHNRVIATHAPSSLARQIQNTKVGVVPSDTIRDLGQNNYAVTVMVVNLYYEDPDLVPVEGFGYLLPSSVPFEQNPERALGVIFGSQSSEGQDTAPGTKLTVIMGGHLWDGWSESDYPDPDKAIEMAQALLHRHLGIKTAPSVARARLLRDAIPQYTVGHLSRMKELSHSVRSDFHKRLTLAGAWYGTVGIGVVDCIRQGYLASSYGVGSKKLGPGNSRRPWTKHDFHNWELEGGIATSPVRFDNVHVTERQHY
Question: For B6, which “level of resistance against Aurora (in words)” value [1] is on record?
Answer: very high levels of resistance

Question: What about the “level of resistance … compared to control plants” value [1] of the same molecule?
Answer: about 10^5

B7: SEQ ID NO: 100: PPO from Rhizophagus sp. Protein. (protein, listed as Rhizophagus sp.)
chain: MSSPNNFVILGGGISGLSAAWYLSRYAPSTTKILVLEGSNRFGGWIKSKRVGQHKILFEQGPRTLRPNGIGGSVVLDMVNRLNLIPSLHAVTKDDDAAKDRFIYYPDKIVKLPGTSLLSSMKSVFTNNFLLKSIPSILFEPFIKPARNYHDETIHEFISRRFSKSISDILISALIHGIYAGDINKLSIRSTFTRLYNLEQKYGSVIKGLLMSNKEEFLSQQDKYLLKIINDENKDFLSIFKNVSLYSFKDGIEQLSSAIVNDLKNKENVQLKTNNQVTKLEFGENVKIFTNEAVYEADHVISALPSRALYNILPEKDVLPHLNYNPSVSVATINLAYAHPKILPVKGFGYLIPQSTPHNPYHVLGVVFDSNAMPLQDEPSRTYTKLTIMMGGHYFNSISEKDDFPKKEILLQQSIEILEKHLGIYSTPLYYLVDIQKNCIPQYYVGHYSRLKELHYAIKNHYANRLSVTGASYWGISINDCVLNSAKLVLNILSNSPNVVTGLEEVEIQNEHYL
Question: For B7, which Herbicide tolerance (Arabidopsis plants) is on record?
Answer: no

B8: SEQ ID NO: 102: Glycine max protoporphyrinogen oxidase 1, chloroplastic, XP_003536005.1 (protein)
chain: MVSVFNEILFPPNQTLLRPSLHSPTSFFTSPTRKFPRSRPNPILRCSIAEESTASPPKTRDSAPVDCVVVGGGVSGLCIAQALATKHANANVVVTEARDRVGGNITTMERDGYLWEEGPNSFQPSDPMLTMVVDSGLKDELVLGDPDAPRFVLWNRKLRPVPGKLTDLPFFDLMSIGGKIRAGFGALGIRPPPPGHEESVEEFVRRNLGDEVFERLIEPFCSGVYAGDPSKLSMKAAFGKVWKLEKNGGSIIGGTFKAIQERNGASKPPRDPRLPKPKGQTVGSFRKGLTMLPDAISARLGNKVKLSWKLSSISKLDSGEYSLTYETPEGVVSLQCKTVVLTIPSYVASTLLRPLSAAAADALSKFYYPPVAAVSISYPKEAIRSECLIDGELKGFGQLHPRSQGVETLGTIYSSSLFPNRAPPGRVLLLNYIGGATNTGILSKTDSELVETVDRDLRKILINPNAQDPFVVGVRLWPQAIPQFLVGHLDLLDVAKASIRNTGFEGLFLGGNYVSGVALGRCVEGAYEVAAEVNDFLTNRVYK
modifications: Glycine max
Question: With B8 as the molecule, how does the “High concentration herbicide tolerance” value (Arabidopsis plants) read?
Answer: no
